Results reported in patent US20020009436A1, “Methods and compositions for inhibiting adhesion by microorganisms” (priority 1999, published 2002).

Assays:
P-fimbriated E. coli = test: Flow cytometric adhesion of P-fimbriated E. coli to UECs; format: cell-based
Description: (§1) Methods for handling polyphenol oxidase and asparaginase and for observing adhesion by microorganisms were generally as described in the previous Examples with variations to adapt these methods to epithelial cells.
The bacteria were labeled intracellularly with the fluorescein dye CFDA-SE. Median fluorescence intensity of the UECs was taken as a measure of the number of bacteria attached to them. In the Figures below, median fluorescence is converted to % adhesion using control conditions (UEC+untreated bacteria) as 100%.

[1] = system: P. aeruginosa culture supernatants; test: Proteolytic activity of P. aeruginosa culture supernatants on azocoll; format: biochemical; conditions: culture supernatants treated with 50 units/ml asparaginase
[2] = system: "trypsin-like" protease activity of P. gingivalis; test: Trypsin-like protease activity of P. gingivalis cells (BAPNA); format: cell-based; conditions: asparaginase 20 U/ml, polyphenol oxidase 80 U/ml
Method: Cell suspensions of P. gingivalis were adjusted up to 1.3 OD at 540 nm in PB. A 100 μl volume of 700 μg/ml BAPNA (benzoyl-DL-arginine-p-nitroanilide) was added to 3 ml of cell suspension. The cells were incubated at 37° C. for different periods of time. The blank contained BAPNA and buffer in the same proportion as P. gingivalis cell suspension. Tubes were centrifuged and the subsequent supernatant was diluted 1:3 and read at 405 nm. Asparaginase and polyphenol oxidase were 20 and 80 U/ml, respectively.

[3] = system: proteolytic activity of the P. gingivalis; test: Hydrolysis of collagen substrate (azocoll) by P. gingivalis; format: cell-based
Description: The asparaginase and polyphenol oxidase thus not only affect the adhesion and/or hemagglutination, but also the proteolytic activity of the P. gingivalis.

Candida albicans = test: Adhesion of Candida albicans to buccal cells; format: cell-based; conditions: 37° C. 60 min, ave ±SE, 5 runs
[4] = system: endogenous bacteria attached to UECs; test: Removal of endogenous biota from sloughed urinary epithelial cells; format: cell-based; conditions: for Percent UECs with ≧30 Bacteria Attached: PBS 30
Method: Sloughed epithelial cells were incubated with the enzymes, collected by filtration, transferred to microscope slides and stained with crystal violet. Then 50 epithelial cells from each slide were randomly assessed for the numbers of bacteria associated with them and placed into one of four categories: Cells with 0-9, 10-29, 30-49, or >50 bacteria associated with them.

S. pneumoniae = test: Adhesion of pneumococci to buccal cells; format: cell-based; conditions: strain 6303
Method: as §1, with “these bacteria and to buccal” for “epithelial”, “cells. In particular, adhesion was measured in a manner similar to that just described for S. pyogenes.” for “cells.”

S. sanguis = test: Adhesion of S. sanguis to saliva-coated hydroxylapatite beads; format: cell-based, Streptococcus sanguis; conditions: polyphenol oxidase 100 μg/ml or 150 units; asparaginase 20 U/ml; 1 hr at 37° C.
Method: S. sanguis was grown and handled according to procedures known to those of skill in the art. Hydroxylapatite beads were coated with saliva and washed. Adhesion was measured using [^3H]thymidine labeled streptococci. Various cell densities were run but using a single 40 mg weight of beads.
The “cooperative” adhesion (loss of upward slope on the Scatchard plot) was absent following both enzyme treatments. Incubation of cells with enzymes was 1 hr at 37° C.

Influenza A strain H1N1 = test: Hemagglutination of chicken erythrocytes by influenza virus; format: cell-based; conditions: polyphenol oxidase 70 U/ml or asparaginase 10 U/ml; untreated 256
Bacillus cereus = test: Growth inhibition of Bacillus cereus; format: cell-based
Salmonella enteritidis = test: Hemagglutination of horse red blood cells by Salmonella enteritidis; format: cell-based; design: key: + Hemagglutination; − No hemagglutination; conditions: 2 hr incubation, polyphenol oxidase 70 U/ml, asparaginase 65 U/ml
Method: Three Salmonella enteritidis clinical isolate strains, SE 79, SE 89-8312 and SE S1-072-Z were used. The bacterial strains were grown statically in brain heart infusion (BHI) broth for 48 h at 37° C. The cells were harvested by centrifugation and washed twice in 10 mM phosphate buffer (PB) pH 7.5. The final bacterial pellet was then suspended in the same buffer to the desired density.
Bacterial suspensions OD 1.0 (5 ml each) were mixed in the absence and presence of polyphenol oxidase (70 U/ml) or asparaginase (65 U/ml) and incubated statically at 37° C. for 2 h. The cells were then centrifuged and washed 2 times with PB (pH 7.5) and were suspended at a final volume 125 μl. These cells were subjected to hemagglutination tests.
For hemagglutination studies, red blood cells from horse were used. The red blood cells were washed with PBS (pH 7.5) by low speed centrifugation 10 min and suspended to 2% in the same buffer.

B1: asparaginase: enzyme that catalyzes hydrolysis of the side chain amide group of asparagine to a carboxyl group; E. coli asparaginase (protein, UniProt P00805 23-348, looked up)
L-asparaginase 2: LPNITILATGGTIAGGGDSATKSNYTVGKVGVENLVNAVPQLKDIANVKGEQVVNIGSQDMNDNVWLTLAKKINTDCDKTDGFVITHGTDTMEETAYFLDLTVKCDKPVVMVGAMRPSTSMSADGPFNLYNAVVTAADKASANRGVLVVMNDTVLDGRDVTKTNTTDVATFKSVNYGPLGYIHNGKIDYQRTPARKHTSDTPFDVSKLNELPKVGIVYNYANASDLPAKALVDAGYDGIVSAGVGNGNLYKSVFDTLATAAKTGTAVVRSSRVPTGATTQDAEVDDAKYGFVASGTLNPQKARVLLQLALTQTKDPQQIQQIFNQY
With B1 as the molecule, how does the “decrease in adhesion to UECs” value (P-fimbriated E. coli; asparaginase 2.5 units/ml) read?
The value was 45%.

What about the “decrease in adhesion to UECs” value (P-fimbriated E. coli; asparaginase 5 units/ml) of the same molecule?
Its value is 55%.

And the “decrease in adhesion to UECs” value (P-fimbriated E. coli; asparaginase 25 units/ml)?
Its value is 85%.

What about the “adhesion to UECs” value (P-fimbriated E. coli; bacteria first incubated with globoside, then polyphenol oxidase 282 units/ml or asparaginase 5 units/ml) of the same molecule?
The value was “nearly the same as that of untreated bacteria”.

What about the “proteolytic activity on azocoll” value [1] of the same molecule?
Its value is “markedly reduced proteolytic activity”.

What about the “trypsin-like activity (BAPNA hydrolysis)” value [2] of the same molecule?
The value was “diminished”.

And the “hydrolysis of the collagen substrate (azocoll)” value [3]?
Its value is “reduction of the hydrolysis”.

And the Candida/buccal cell (Candida albicans; cells, 20 U/ml, control 9.0 ± 3.5)?
The Candida/buccal cell was 7.0 ± 2.

What about the Candida/buccal cell (Candida albicans; cells, 60 U/ml, control 9.0 ± 3.5) of the same molecule?
Its Candida/buccal cell is 4.5 ± 1.5.

And the Candida/buccal cell (Candida albicans; hyphae, 20 U/ml, control 5.1 ± 3.1)?
The Candida/buccal cell was 3.1 ± 2.0.

And the Candida/buccal cell (Candida albicans; hyphae, 60 U/ml, control 5.1 ± 3.1)?
Its Candida/buccal cell is 1.3 ± 1.2.

What about the “numbers of UECs with large numbers of endogenous bacteria” value [4] of the same molecule?
The value was “little or no effect”.

And the “Percent UECs with ≧30 Bacteria Attached” value ([4]; asparaginase 5 U/ml, 30 minute incubation)?
The value was 28%.

And the “Percent UECs with ≧30 Bacteria Attached” value ([4]; asparaginase 10 U/ml, 30 minute incubation)?
Its value is 26%.

And the “effects on the numbers of endogenous bacteria attached to UECs” value ([4]; polyphenol oxidase 70 or 140 U/ml, asparaginase 5 or 10 U/ml, 30 minute incubation)?
The value was “relatively minor effects”.

What about the “adhesion of S. pneumoniae to buccal cells” value (S. pneumoniae) of the same molecule?
Its value is “able to reduce adhesion”.

What about the adhesion to hydroxylapatite (S. sanguis) of the same molecule?
The adhesion to hydroxylapatite was “reduced adhesion”.

And the “Hemagglutination Titers, Dilution of Virus + RBCs (fold)” value (Influenza A strain H1N1)?
The value was 64 fold.

And the “inhibition of growth of Bacillus cereus” value (Bacillus cereus)?
The value was “did not significantly inhibit growth”.

And the Hemagglutination (Salmonella enteritidis; SE 79, dilution 1/1)?
The Hemagglutination was “+”.

And the Hemagglutination (Salmonella enteritidis; SE 79, dilution 1/2)?
The Hemagglutination was “−”.

And the Hemagglutination (Salmonella enteritidis; SE 79, dilution 1/4)?
Its Hemagglutination is “−”.

And the Hemagglutination (Salmonella enteritidis; SE 79, dilution 1/8)?
Its Hemagglutination is “−”.

And the Hemagglutination (Salmonella enteritidis; SE 79, dilution 1/16)?
The Hemagglutination was “−”.

What about the Hemagglutination (Salmonella enteritidis; SE 79, dilution 1/32) of the same molecule?
The Hemagglutination was “−”.

What about the Hemagglutination (Salmonella enteritidis; SE 79, dilution 1/64) of the same molecule?
Its Hemagglutination is “−”.

And the Hemagglutination (Salmonella enteritidis; SE 79, dilution 1/128)?
The Hemagglutination was “−”.

What about the Hemagglutination (Salmonella enteritidis; SE 89-8312, dilution 1/1) of the same molecule?
Its Hemagglutination is “−”.

What about the Hemagglutination (Salmonella enteritidis; SE 89-8312, dilution 1/2) of the same molecule?
Its Hemagglutination is “−”.

What about the Hemagglutination (Salmonella enteritidis; SE 89-8312, dilution 1/4) of the same molecule?
The Hemagglutination was “−”.

What about the Hemagglutination (Salmonella enteritidis; SE 89-8312, dilution 1/8) of the same molecule?
The Hemagglutination was “−”.

What about the Hemagglutination (Salmonella enteritidis; SE 89-8312, dilution 1/16) of the same molecule?
The Hemagglutination was “−”.

What about the Hemagglutination (Salmonella enteritidis; SE 89-8312, dilution 1/32) of the same molecule?
Its Hemagglutination is “−”.

And the Hemagglutination (Salmonella enteritidis; SE 89-8312, dilution 1/64)?
The Hemagglutination was “−”.

What about the Hemagglutination (Salmonella enteritidis; SE 89-8312, dilution 1/128) of the same molecule?
The Hemagglutination was “−”.

And the Hemagglutination (Salmonella enteritidis; SES1-0072-Z, dilution 1/1)?
Its Hemagglutination is “+”.

And the Hemagglutination (Salmonella enteritidis; SES1-0072-Z, dilution 1/2)?
The Hemagglutination was “−”.

What about the Hemagglutination (Salmonella enteritidis; SES1-0072-Z, dilution 1/4) of the same molecule?
The Hemagglutination was “−”.

And the Hemagglutination (Salmonella enteritidis; SES1-0072-Z, dilution 1/8)?
Its Hemagglutination is “−”.

What about the Hemagglutination (Salmonella enteritidis; SES1-0072-Z, dilution 1/16) of the same molecule?
The Hemagglutination was “−”.

And the Hemagglutination (Salmonella enteritidis; SES1-0072-Z, dilution 1/32)?
The Hemagglutination was “−”.

What about the Hemagglutination (Salmonella enteritidis; SES1-0072-Z, dilution 1/64) of the same molecule?
Its Hemagglutination is “−”.

What about the Hemagglutination (Salmonella enteritidis; SES1-0072-Z, dilution 1/128) of the same molecule?
Its Hemagglutination is “−”.
